According to the domain aggregation screens of Martell et al. (2025):

Assay: soluble fraction after stress (log2 fold change); higher = more stays soluble; pooled small domains, quantitative proteomics
Settings: stress: 75 degC
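Further: 20 min heating vs room temperature control held 20 min.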

| Sequence | soluble fraction (log2) |
| --- | --- |
| HMARRKRDIDSDINVKVFEHWLDNLDSASRESFSAFAEETFSPIQVYLYAKFLGYESSIIAVDHWVAVAYP | 0.135 |
| HMARSVAEFVERGRSGGSLERPKLQRMLEYIQDRPVDFVIVHKIDRLARNRADDAAITKTIRGAGAYLVST | 0.1 |
| HMARTGSEELVGALATVREPLAPWGQVFVQGALWRARSADGGPVDAGQQVVVRAVEGLTLVVEPRD | -0.143 |
| HMARYSMLEEQLLQLINKHGTMSTPKLVEATGAPRSTVTYQLRKLLESGTIERTQPARSPKQSYRIKS | -0.416 |
| HMASATGVVTAASLNVRSGAGTNYSVVNTLAKGTKVTVLNTADGWYEIEATVNNEKITGYVSATYIAMD | -0.538 |
| HMASLSRRELEVLELLALRLTVKEVAERLVISELTAKRHTSNIYQKLGVNRRRDALAAAQARGLLGAR | -3.18 |
| HMASRSQTEIMHLLSSGLPKHELVTALQSLLGISKPTAYKYLSQDVSIAYDHMVKILEYPPFQRVLYQ | -1.93 |
| HMASSVKAPLPGVILDIKVKVGDTIKNGDTVVILEAMKMENNIHSDKDGVVKSIEVNKGDSVLEGATLLTI | 0.33 |
| HMASVDDILDRFKQAAKVTTDADLAKVLGLSRQSIAAARLRAKIPASWFPKMSSLFNISTEWLYRG | -1.18 |
| HMASVRPVAPPDPKTHTRLTYRIRRGDTLERIGRRYRVSIAEIQAWNTLRDPGDILAGQRLVIWIPTS | -2.33 |
| HMATAPQIRAIYALGSKLGINQNSREDNLHQLVYSITGKESIKGLTNYEAARVQSELANMERK | 0.323 |
| HMATEPLQPRVEVLGSTLATTNGARIVGVYDMSGREVSATQLSKGVYIVKVTNGSVTATQKVFI | -0.477 |
| HMATETMGMIIRRLRREHGLTQEELAASIGVTAQAVSKWEKDLGMPDISQIVPLAGAFNVRTDVLFGLE | -2.65 |
| HMATEWLSSKEAAQRLGVSAATLYAYVSRGLLRSEGSSGQRERRYRADDVAQLRRRREVGRKAESIAASTL | -1.31 |
| HMATHWHITPNPNNGKFLISGLMQDDSFHLMDASGQWLRQLRTVNQELDLDLQPGVYFLKDNSGSVMKFVV | -1.13 |
| HMATIADILAEHKDKEGPLLPVLHDVQKMFGHVSEEAMREIAQALNLTRAEVYGVVSFYHDFRKEVE | -1.46 |
| HMATIIGSIGIVTQKVGLTGVPGRVYVNNESWAAISANGKEIENDTQVIVVKIDGATLIIEKKG | -2.22 |
| HMATKEQIKRIYGLGAGLGIVGKDKDDMLHELIFSITGKDSVKQLDDSEFKAVQAELINRMKLA | 0.0958 |
| HMATLAVPNLMRLSQGEAMALIRLSGLSIGNVSIDSSMGSPRVIRQEPQASGGMLVLTQGDQVHLWLEGP | -3.75 |
| HMATLQLPVPKITLYPGELIRSDHLTDQRFNARALYHSAVYKSREDIVGKVARRTLLPGQPIPVNALR | -1.07 |
| HMATPKRGFRKQLAPLVQSGTITREEAGELSRSSGDATALRTKIGELMKAGKLTRKEAGELYSDAFPENA | 0.145 |
| HMATPYISMAGIGKSFGPVHALKSVNLTVYPGEIHALLGENGAGKSTLMKVLSGIHEPTKGTITINNIN | 0.458 |
| HMATRAEQMAKTHQAILDTARELFLRNGYDATSTRDIANAIGITQPALYHHFKDKEVIFLAVI | -0.107 |
| HMATSLTEQEKLIFGLLKKQSPIELSSLKEQAGLSNKKWDKAIKGLSTQQLAKVTKTENGLFVHLLQ | 0.00913 |
| HMATTAGIEKYLGSGLIKGIGPIYAKKIVRKFKEDTIRIIDEEPDRLLEVEGIGQKRLEIIKQAWQQQKE | -0.651 |
| HMATVHVDGIQYDFSSPEQAKEFAYKWAKKHNLTWEVHGETIHIK | -0.225 |

| Sequence | soluble fraction (log2) |
| --- | --- |
| HMATYNEVLKRLIEERKRLGLSQQEMARLVHITQSNYSKVEKGLHRLSYEELKYLSKANVDIFYILT | -0.0786 |
| HMAVANEAIANINMKEVKQAIHNLPEIFKNPFLLYFDGYKYHEIAEMLDEPLGTIKSRIHFARKLLKSHI | -0.889 |
| HMAVDVNKATAAELDSIKGIGPAISAKILEEKKKGGNFKDWNDLVTRVSGVGEANAAKFSSEGLTVGGAS | 0.0168 |
| HMAVELPLETTLDIVRKYARNQEVDRRAERVEAVSAEALQTLAPRGTKLASEIVEQAKTQVLEELA | 0.476 |
| HMAVKYTKDDFLYTEKPYEAIYDYKNDPFMHNLKIEQMAQQAAEVGVKTFKGLYKNYVKMREMQRGANV | 0.0263 |
| HMAVNSALVQRNWLIGYRIAEEELQGDNRAEYGASIIKKLAKELTAEYGKGYTKTNLYHFYSFYKT | -0.0399 |
| HMAVNVNGIHLSSQQHEALVSIWRTGRMPEPHAGQKPWLWIQALRRRGLVSGNALRLTDKGRHIVQLLQ | -0.288 |
| HMAVPAALVQAWLELSRRMVAGTQDVGERFAEEARKMHYGETEDRGIRGQATLTEVRDLLDEGIEVLPLLL | -0.439 |
| HMAVPLVRGTVTSSVGTVLLLSVGERDFFLSEGEEKDGVLLQSLSEKSAVVVVSGRAYTLSL | -4.42 |
| HMAVRLADMAAEKIRKMIIENKFDAGEPLSEMRLAEMFNVSRTPIREAIAILEQEGLLTTVHGKGAFIS | -0.896 |
| HMAVSDAAEEYGKAGTPLVILAGKEYGSGSSRDWAAKGPYLQGVRAVLAESYERIHRSNLVGMGIVPLTYK | 0.18 |
| HMAVSDPTAGGIKALMYPNPAQDRLSVALDIPAGLDKQAQMTVTDMMGRVVTQQQVTLNDGFQVFEL | 0.268 |
| HMAVSSYSVKRYIRNMIQAEDPSAPFSDEALRLALLAHGIAVSRRVVTKYRMAMDIPSSSQRRKR | -1.41 |
| HMAVSTFGRITASSLNVRSGPSTDHEKVGSLAAGRVVELLEESDGWYRIENGYISTEYVTIVDPSQ | -0.715 |
| HMAVTEVKTTAVVNMRSSDSEKADKLGKAQIGDTFRVLEQRANGWTKLTDGTQEFFIKSEYLEAIA | 0.109 |
| HMAVVAPLAGSVARVLVADGDEIEAGQVLLVLEAMKMETEITAPKAGKVGAILVGKGDSVQGGQGLR | -0.18 |
| HMAYLTGFHAIEELIRAGKAKGPLLVANAGPRARTIMSLATDNKIRIDRLGEHELNRLAPGNRGIALYVE | -0.898 |
| HMDAAYVYVIGTRVNQRAGPSTSNAVMGVLSEGTRVETLRDEGQWTQIRSNFGTGWMSSSFLSSVAP | -1.28 |
| HMDADRILHKTLKPRELEIYQLIKAYLEEHSQIANAKVQEISGLSEATTRRYLNIFVEFGLLKTS | -0.214 |
| HMDADTVGQIRVVKQILDDGRLIVVDASGNPVLVRRSSALSLTAISQGDRIIVDPSVRLAIELLPNE | -0.637 |
| HMDAEELNSKAKDEFTWLEDDESETNLEYRKMVSSEDMAIVAKVAPALAAKLKYQLAHAATNMV | 0.149 |
| HMDAEVEHLFRIIAELKEKNVAIIYISHKMDEIFRISDDITVYRDGEYIATDRAENLNVDKVIQLMVGREV | -0.429 |
| HMDAEWRTLTLAPEQHQQRLDRALADSLPEFSRSYVQQLIDTGMVRVNGVLAAKSAQRVKALDQVQVELR | -0.411 |
| HMDAGIVVPDTYNKPLAEAVASLEGEGFRTEKKEGYSDTVAKGNVMSQNPEAGTNAERGSTVTIVISQGPQ | 0.455 |
| HMDAINYEDFQLLIKQRGSFKVAFEDIMFSTKVAIEKKEDFYDFVTKLIDNGFNNMAYNYLEGFQD | -2.07 |
| HMDAISYTQFMEEAKQGRINKVEVQGRTLMVTPTDGKAYSLTSPGDLWMTTDLMKYGVNVYGAE | 0.0525 |

| Sequence | soluble fraction (log2) |
| --- | --- |
| HMDALKAVYQWVTRTMMKNQTGVMQTLPNRDLIELNTQITAQRLMQAGVDPTTLKNANQVENAVNIIESR | -0.69 |
| HMDAMGAVGIARAFISAGERGGDISDGLEHMHGKLLRLSSLMYTRSGKKMAARRHELLSSFVQALEEEIK | -0.327 |
| HMDAMQAFPNPTVDEIHFVTPTTGRVYNAHGQLVMVLKNAQLVNVRQWSAGQYVIVREDGYAVRWIK | -1.3 |
| HMDAPQRVTYLLPHSRGEVVSWLHRQGEVVAQEYEAEGVRVVVDLRYAQIRQAAKQFDVLPAEG | -1.24 |
| HMDAPRFAAGDAVRVAGLVSKPQHNGRAGSVLSYDPVSLRYIVKVDGEDEPLKLKPENVLMPA | 0.11 |
| HMDAQLRVPDLTPYNYSELKENTSLYEGFTIEVVEERSTGDYAAGTVLDQDPKADTLIQDGDSTVIKLVIA | 0.151 |
| HMDASFTYSLETHPAGVLVRVDGLEYETPFSILLPQGVHRLEVAGEERFFYLSETTHQFLEID | -2.9 |
| HMDATGDPIADRILQALQLGELTRTQVNNVFQRHLAAARISQALNFLRSLKRADMRMEETAGRSGEVWFAI | -0.454 |
| HMDAVKKKVQSTNTLLDVLKQMLPQTSSNTLRKMLTNQRITVDGETIHRAKHTVEKDQTVEIHPKP | 0.215 |
| HMDAVSYTQFMQDAKAGRIKKVIVHQSGILDVTTTEGRRFNLTSPGDLWMVGDLVKDGVDVVGAP | -0.234 |
| HMDAVTYAKGSSGETVREIQQLLLDWGYYSGEVDGIFGSRTEDAVEYFQRKNGLTVDGKVGPATLEALGIS | -0.0808 |
| HMDAYMIGHNIAKWRKEKGMTQDQLAEHLSVSGQAVSKWENGASLPDIAILPKLAEIFDVTMDQLFSR | 0.0534 |
| HMDDAIAEKTGGAVSSVNQRQAILDHIREAYGIELESLRSTDIERYLDDPEIPEPVKDILRDRLRGAK | 0.204 |
| HMDDDAELLLKKLSAAGGELPFHDRSEPAEIEAAFGLSKSAFKRALGKLLKAGKVVKTQQGIQLK | 0.162 |
| HMDDDIKNALDVLPEQYRMTVYYADVEGLAYKEIGAIMNTPIGTVMSRIHRGRSQLRVLLAAVAADR | 0.316 |
| HMDDFITLVIHTPAHAQNLRNILESHGMEVRLEDFVSFKSPVAVAQRVKIRPKDLPLALKIIESGE | 0.19 |
| HMDDFVEIDGKKYEIDMSFDNILRLFDLLKDKSLNDVTKIETGLIMLIDDSLDDYDTEEKADIFVQIF | -0.411 |
| HMDDGALQIRLGPQALQQRLDKLGYSLNKEDLDLVYQYFLHSADSKGAVYDQELRELMGEAGVE | -0.102 |
| HMDDIHTFVYETETPFDPQKLDRYIGSLTAVYGQDMLRYKGILYFAGVDRRVVFQGVHMLAV | -0.0939 |
| HMDDILAYEIEDKEDLENLSLGKSIGINLNKLIKPTLNSFDNSLLFLSKKGNIISYGKLNGDLFKPKKVL | 0.346 |
| HMDDINVSNSKNIVPNVTGHTGSKAIPVLENLGLDVQYSGFGKVTNQSIPAGTRFKKGETIYLMLE | 0.03 |
| HMDDIVFPNPTKNQINVSIDGLKNIYNLSGKLLISTNDKIIDVSILKAGVYFINTNEQFYKFVK | -1.41 |
| HMDDIVPHSTKNHIIKTFLSLMNSLDIITDKNKKSLNQNVHIIFNKFNFSKKEANLFIGVLNRIQKALK | 0.602 |
| HMDDLFGNAIEMFNNQRYDMTYELLVQLLSETPNNEKAWQLLADTKFMLGDYDDALHIVGKAAK | -1.05 |
| HMDDPWHNLANAIVAVAADDYRSALRNEDEGLLKSLELFFHSEWYRILTDVDADRLLGMLRRERS | -1.71 |
